One assay relates to SARS-CoV-2 pseudovirus. The assay is classed as cell-based.
The subject of the next assay is HSPG receptor. In words: hLF cell membrane localization, confocal microscopy of VeroE6/T cells. Format: cell-based, African green monkey. Particulars: 2.5 µM hLF, cells chilled at 4° C., anti-hLF staining. On the procedure: To visualize cell membrane localization of human lactoferrin (hLF), VeroE6/T cells (0.75×10^5 cells/well) were chilled at 4° C. for 1 hr, incubated with 2.5 µM of hLF. Cells were washed, fixed using 4% PFA (Invitrogen), stained with anti-hLF antibody, and fluorescent image was taken under confocal microscope (FIG. 10, middle row). Cell nuclei were visualized using DAPI (FIG. 10, bottom row). To visualize the cell surface and nuclei at the same time, the confocal images above (i.e., FIG. 10, middle and bottom rows) were merged and are presented in FIG. 10, top row. […] To see the effect of heparin on the binding of hLF to the cell surface (specifically the HSPG receptor), cells were co-incubated with hLF and heparin (H), and the confocal image was taken (FIG. 10, right column).

Assay [1] deals with SARS-CoV pseudovirus. Format: cell-based.
Another assay concerns the target ACE2 receptor (Homo sapiens, UniProt Q9BYF1). In words: Effect on ACE2 receptor enzyme activity. Format: biochemical. As to conditions: binds away from the enzyme active site. The source says:
The results were proven using a small molecule inhibitor. This type of fusion protein enables both lactoferrin to bind to the HSPG on the cell surface and the receptor binding site on the S protein to bind to the ACE2 receptor on the cell surface, thereby tying up both the receptor and co-receptor on the host cell and preventing entry of the virus into the cell. […] Thus, in some embodiments, a recombinant protein as described herein, wherein the receptor binding domain of the SARS-CoV-2 spike (S) protein is fused with lactoferrin, binds to the host cell surface receptors (e.g., ACE2 receptor and HSPG) and prevent binding of the SARS-CoV-2 virus from binding and entering the host cell. This approach is different from other studies in the art, in which recombinant proteins bind to the viral particles themselves to prevent attachment of the virus to the cell. The present disclosure rather discloses a recombinant protein that binds to the host cell and effectively ties up the cell surface receptors such that the virus particles can no longer bind and infect the cell.

In assay [2] the test system is SARS-CoV pseudovirus. Particulars: cited from earlier work.
The conditions of assay [3]: acidic pH conditions during inflammation; cited from earlier work.

The text below walks through data of patent publication US20230331815A1 (priority 2020, published 2023).

Chain of ACE2 receptor (Q9BYF1 18-805): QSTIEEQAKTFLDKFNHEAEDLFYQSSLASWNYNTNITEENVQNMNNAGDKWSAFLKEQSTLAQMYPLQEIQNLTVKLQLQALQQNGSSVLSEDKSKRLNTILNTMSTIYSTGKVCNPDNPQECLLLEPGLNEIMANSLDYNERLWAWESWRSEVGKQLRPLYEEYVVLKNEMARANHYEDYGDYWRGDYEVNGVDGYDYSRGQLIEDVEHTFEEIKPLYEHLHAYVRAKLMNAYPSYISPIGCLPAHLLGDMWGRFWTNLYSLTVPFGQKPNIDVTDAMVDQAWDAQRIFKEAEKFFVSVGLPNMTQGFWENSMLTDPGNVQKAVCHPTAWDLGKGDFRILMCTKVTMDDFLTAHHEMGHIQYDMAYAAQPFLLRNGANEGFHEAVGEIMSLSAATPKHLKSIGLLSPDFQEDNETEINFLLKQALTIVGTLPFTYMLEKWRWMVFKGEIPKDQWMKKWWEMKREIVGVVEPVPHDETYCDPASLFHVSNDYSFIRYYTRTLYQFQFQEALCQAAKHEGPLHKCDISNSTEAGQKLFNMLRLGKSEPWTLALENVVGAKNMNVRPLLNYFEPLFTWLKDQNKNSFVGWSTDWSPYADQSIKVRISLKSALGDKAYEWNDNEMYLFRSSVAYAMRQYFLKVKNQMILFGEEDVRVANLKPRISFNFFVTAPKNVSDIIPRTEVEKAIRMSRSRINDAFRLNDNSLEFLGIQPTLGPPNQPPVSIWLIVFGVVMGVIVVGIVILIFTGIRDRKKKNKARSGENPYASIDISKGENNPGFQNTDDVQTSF

B1: hLF: human lactoferrin (LF), 711 amino acids, SEQ ID NO:4; 70-80 kDa basic protein of the transferrin family (protein, listed as Homo sapiens)
chain: MKLVFLVLLFLGALGLCLAGRRRRSVQWCAVSQPEATKCFQWQRNMRKVRGPPVSCIKRDSPIQCIQAIAENRADAVTLDGGFIYEAGLAPYKLRPVAAEVYGTERQPRTHYYAVAVVKKGGSFQLNELQGLKSCHTGLRRTAGWNVPIGTLRPFLNWTGPPEPIEAAVARFFSASCVPGADKGQFPNLCRLCAGTGENKCAFSSQEPYFSYSGAFKCLRDGAGDVAFIRESTVFEDLSDEAERDEYELLCPDNTRKPVDKFKDCHLARVPSHAVVARSVNGKEDAIWNLLRQAQEKFGKDKSPKFQLFGSPSGQKDLLFKDSAIGFSRVPPRIDSGLYLGSGYFTAIQNLRKSEEEVAARRARVVWCAVGEQELRKCNQWSGLSEGSVTCSSASTTEDCIALVLKGEADAMSLDEGYVYTAGKCGLVPVLAENYKSQQSSDPDPNCVDRPVEGYLAVAVVRRSDTSLTWNSVKGKKSCHTAVDRTAGWNIPMGLLFNQTGSCKFDEYFSQSCAPGSDPRSNLCALCIGDEQGENKCVPNSNERYYGYTGAFRCLAENAGDVAFVKDVTVLQNTDGNNNEAWAKDLKLADFALLCLDGKRKPVTEARSCHLAMAPNHAVVSRMDKVERLKQVLLHQQAKFGRNGSDCPDKFCLFQSETKNLLFNDNTECLARLHGKTTYEKYLGPQYVAGITNLKKCSTSPLLEACEFLRK
As to B1, in the assay on SARS-CoV-2 pseudovirus (VeroE6 or VeroE6/Tmprss2), the “inhibition of SARS-CoV-2 infection in target cells” value is “efficient inhibitor”. Also, the “entry of SARS-CoV-2 virus into cells” value with SARS-CoV-2 pseudovirus (in vitro) is “prevent entry”. Further, the “binding to HSPG receptor on the cell membrane” value with HSPG receptor is reported as “binds the HSPG receptor on the cell membrane”. Besides, the “entry of SARS-CoV virus into cells” value in the assay on SARS-CoV pseudovirus [1] is “prevent entry”. Besides, in the assay with ACE2 receptor, the “effect on ACE2 receptor enzyme activity / cellular function” value is listed as “does not interfere with ACE2 receptor activity”. Moreover, the SARS pseudovirus entry result in the assay on SARS-CoV pseudovirus [2] is reported as “prevents SARS pseudovirus entry”. Moreover, the “iron affinity relative to transferrin” value in assay [3] was 30 times higher than transferrin.

B2: Recombinant lactoferrin: recombinant lactoferrin expressed or manufactured in other species, e.g., plant species such as rice (e.g., Ventria Bioscience) (protein, UniProt P02788 20-710, looked up)
Lactotransferrin: GRRRSVQWCAVSQPEATKCFQWQRNMRKVRGPPVSCIKRDSPIQCIQAIAENRADAVTLDGGFIYEAGLAPYKLRPVAAEVYGTERQPRTHYYAVAVVKKGGSFQLNELQGLKSCHTGLRRTAGWNVPIGTLRPFLNWTGPPEPIEAAVARFFSASCVPGADKGQFPNLCRLCAGTGENKCAFSSQEPYFSYSGAFKCLRDGAGDVAFIRESTVFEDLSDEAERDEYELLCPDNTRKPVDKFKDCHLARVPSHAVVARSVNGKEDAIWNLLRQAQEKFGKDKSPKFQLFGSPSGQKDLLFKDSAIGFSRVPPRIDSGLYLGSGYFTAIQNLRKSEEEVAARRARVVWCAVGEQELRKCNQWSGLSEGSVTCSSASTTEDCIALVLKGEADAMSLDGGYVYTAGKCGLVPVLAENYKSQQSSDPDPNCVDRPVEGYLAVAVVRRSDTSLTWNSVKGKKSCHTAVDRTAGWNIPMGLLFNQTGSCKFDEYFSQSCAPGSDPRSNLCALCIGDEQGENKCVPNSNERYYGYTGAFRCLAENAGDVAFVKDVTVLQNTDGNNNEAWAKDLKLADFALLCLDGKRKPVTEARSCHLAMAPNHAVVSRMDKVERLKQVLLHQQAKFGRNGSDCPDKFCLFQSETKNLLFNDNTECLARLHGKTTYEKYLGPQYVAGITNLKKCSTSPLLEACEFLRK
modifications: expressed in rice
With B2, the “anti-viral effective concentration range” value in the assay on SARS-CoV-2 pseudovirus (virus not named) is on record as “effective in the low µM range”.
